Test results: patent US20060121580A1

B1: SC03-036 (scFv)
scFv: AMAEVQLVQSGTEVKKPGESLKISCKGSGYGFITYWIGWVRQMPGKGLEWMGIIYPGDSETRYSPSFQGQVTISADKSINTAYLQWSSLKASDTAIYYCAGGSGISTPMDVWGQGTTVTVSSGTGGSGGTGSGTGGSTDIQMTQSPDSLAVSLGERATINCKSSQSVLHSPNNKNYLAWYQQKPGQPPKLLIYWASTRESGVPDRFSGSGSGTDFTLTISSLQAEDVAVYYCQQYYSTNSFGQGTKLEIKRAA
B2: SC03-046 (scFv)
scFv: AMAEVQLVQSGGGLVQPGGSLRLSCAASGFTFSSYAMHWVRQAPGKGLEYVSGISSNGGSTYYANSVKGRFTISRDNSKNTLYLQMGSLRAEDMAVYYCARTTNRAFDIWGQGTMVTVSSGTGGSGGTGSGTGGSTDVVMTQSPDSLAVSLGERATINCKSSQSVLYSSNNKNYLAWYQQKPGQPPKLLIYWASTRESGVPDRFSGSGSGTDFSLTISSLQAEDVAVYYCQQYYSPPYTFGPGTKVEIKRAA
B3: SC03-051 (scFv)
scFv: AMAQVQLVQSGTEVKKPGESLKISCKGSGYGFITYWIGWVRQMPGKGLEWMGIIYPGDSETRYSPSFQGQVTISADKSINTAYLQWSSLKASDTAIYYCAGGSGISTPMDVWGQGTTVTVSSGTGGSGGTGSGTGGSTDIQMTQSPDSLAVSLGERATINCKSGQSILYSSNDKNYLAWYQQKPGQPPKLLIYWASTRESGVPDRFSGSGSGTDFTLTISSLQAEDVAVYYCQQYYSTPYTFGQGTKVEIKRAA
B4: SC03-057 (scFv)
scFv: AMAQVQLVQSGAEVKKPGSSVKVSCKASGGTFSRYAISWVRQAPGQGLEWMGRINPILNLTNYAQKFQGRVTITADKSTSTAYMEMSSLRSEDTAIYYCASPDIVVAGHASPPHYTMDVWGQGTTVTVSSGTGGSGGTGSGTGGSTDIQMTQSPSSLSASVGDRVTITCRASQGIRNDLGWYQQKPGKAPNLLIYQASALQSGVPSRFSGSESGAEFTLTISSLHPDDFATYYCQQYHDFPITFGQGTRLEIKRAA
B5: SC03-055 (scFv)
scFv: AMAQVQLQQWGAGLLKPSETLSLTCAVYGGSFSGFYWSWIRQPPGKGLEWIGEINHSGSTNYNPSLKSRVTISADTSKNQFSLKLSSVTAADTAVYYCARRVEVVEYQLLRPRYKSWFDPWGQGTLVTVSSGTGGSGGTGSGTGGSTQSVLTQPPSVSGAPGQRVSISCSGSGANGGTDPVSWYQKFPGTAPHLLIYDNNKRPSGIPDRFSGSKSGASATLDITGLQTGDEADYYCGAWDPSLSGYVFGTGTQLTVLSAA
B6: SC03-039 (scFv)
scFv: AMAEVQLVESGGGLVQPGGSLRLSCAASGFTFSSYAMSWVRQAPGKGLEWVSVIYSGGTSTYYADSVKGRFTISRDNSKNTLYLQMNSLRAEDTAVYFCAKGSKWNDVGGGDYWGQGTLVTVSSGTGGSGGTGSGTGGSTNFMLTQPHSVSESPGKTVTISCAGSSGSIASNYVQWYQQRPGSAPTTVIYEDNQRPSGVPDRFSGSIDSSSNSASLTISGLKTEDEADYYCQSYDGYLWIFGGGTKLTVLGAA
B7: SC03-034 (scFv)
scFv: AMAEVQLVQSGAEVKKPGESLKISCKGSGYGFITYWIGWVRQMPGKGLEWMGIIYPGDSETRYSPSFQGQVTISADKSINTAYLQWSSLKASDTAIYYCAGGSGISTPMDVWGQGTTVTVSSGTGGSGGTGSGTGGSTDVVMTQSPDSLAVSLGERATINCKSSQSILNRSNNKNYLAWYQQKPGQPPKLLIYWASTRESGVPDRFSGSGSGTDFNLTISSLQAEDVAVYYCQQYNNWPLTFGGGTKVDIKRAA
B8: SC03-043 (scFv)
scFv: AMAQVQLVQSGGGLVQPGGSLRLSCAASGFTFSSYAMHWVRQAPGKGLEYVSGISSNGGSTYYANSVKGRFTISRDNSKNTLYLQMGSLRAEDMAVYYCARTTNRAFDIWGQGTMVTVSSGTGGSGGTGSGTGGSTDIQLTQSPDSLAVSLGERATINCKSSQSVLYRSNNKNYLAWYQQKPGQPPKLLIYWASTRESGVSERFSGSGSGTDFTLTISSLQAEDVAVYYCQQYYSTPYSFGQGTKLEIKRAA

Target: SARS-CoV preparation (Frankfurt 1 strain)
Assay: phage ELISA on coated SARS-CoV preparation, plate 3 (no phage antibody 0.054)

In order of falling OD492 nm:
1. B2  1.9 OD492 nm
2. B8  1.27 OD492 nm
3. B4  1.19 OD492 nm
4. B6  0.851 OD492 nm
5. B7  0.802 OD492 nm
6. B5  0.608 OD492 nm
7. B3  0.602 OD492 nm
8. B1  0.24 OD492 nm
